Data as given in the supplement of paper PMC9732359.
± gives the uncertainty stated by the source.

Experiment: protein stability index of a GFP-peptide fusion (yeast GPS) (PSI 1-4); higher = more stable; sorted into four equal gates, so the index is relative within each strain
Outline: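 Peptides tiling yeast proteins in 17-residue segments were fused downstream of GFP, with Cherry expressed from the same plasmid. As a pooled library in yeast, mid-log cultures grown in leucine-free medium were sorted into four equal gates by GFP/Cherry fluorescence ratio. Gate plasmids were PCR-amplified and Illumina-sequenced, and barcodes linked reads to strains. Each peptide received a protein stability index equal to the sum of each gate's read frequency times its gate number.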

Sequence | protein stability index (doa10∆) | protein stability index (pdr5∆) | protein stability index (san1∆) | protein stability index (ubr1∆)
SADDDVNNGNIPSQRGT [SIR3] | 2.97 ± 0.24 | 3.01 ± 0.1 | 2.67 ± 0.11 | 2.86 ± 0.11
SAFMKFSKAIEWDMLNV [BRR2] | 2.15 ± 0.07 | 1.9 ± 0.072 | 1.99 ± 0.081 | 2.04 ± 0.045
SAIEHTTLKSVTIASEI [RPO21] | 2.54 ± 0.085 | 2.39 ± 0.077 | 2.57 ± 0.078 | 2.16 ± 0.045
SALELVGQLNKVVDQLF [RPN6] | 2.84 ± 0.045 | 2.98 ± 0.065 | 2.82 ± 0.059 | 2.68 ± 0.042
SANGYLNATTAMDLAQM [BRR2] | 3.23 ± 0.17 | – | 3.15 ± 0.088 | –
SASFSLKNGDKPHMLKF [RPL6A] | 2.81 ± 0.083 | 1.84 ± 0.055 | 2.89 ± 0.06 | 3.13 ± 0.033
SASLFKQRKNPRRIAWT [RPL24A] | 2.55 ± 0.11 | 2.9 ± 0.097 | 2.96 ± 0.087 | 3.08 ± 0.059
SASSLVITALKEPPRDR [RPL12A] | 2.83 ± 0.062 | 2.97 ± 0.074 | 2.66 ± 0.071 | 2.22 ± 0.052
SATPNAAAFSQQQNASS [GAL11] | 2.94 ± 0.063 | 3.1 ± 0.054 | 2.89 ± 0.035 | 3.09 ± 0.041
SATSTTEQTKSKNPLSL [YLR335W/NUP2] | 2.95 ± 0.04 | 3.01 ± 0.047 | 2.58 ± 0.055 | 2.96 ± 0.044
SCHGHFGHLKLALPVFH [RPO31] | 1.44 ± 0.054 | 1.4 ± 0.057 | 1.23 ± 0.1 | 1.18 ± 0.035
SDDIAENDNLDNVSKNA [YCG1] | 3.39 ± 0.088 | 3.34 ± 0.14 | 3.25 ± 0.063 | 3.23 ± 0.085
SDEEESVLDEQEQYQTN [SNU114] | 3.11 ± 0.14 | 3.25 ± 0.079 | 3.25 ± 0.11 | 3.31 ± 0.069
SDIESANNQEYDLNFKL [SMC1] | 3.12 ± 0.29 | – | – | –
SDIVLDKKVTLITSEMF [SIN4] | 1.69 ± 0.085 | 1.92 ± 0.13 | 1.79 ± 0.11 | 2.14 ± 0.073
SDKDATTDGKNDDEEEE [RPN1] | – | 3.33 ± 0.26 | – | –
SDKESNAYGFIEWCSRC [YJL039C/NUP192] | 2.98 ± 0.066 | 2.79 ± 0.067 | 2.97 ± 0.053 | 2.73 ± 0.063
SDKQRRLLAKDAMIAQR [DIS3] | 2.29 ± 0.056 | 2.48 ± 0.049 | 2.36 ± 0.064 | 2.46 ± 0.049
SDLLVAPPLENENSNCL [YML103C/NUP188] | 3 ± 0.095 | 3.28 ± 0.1 | 3.25 ± 0.14 | 3.18 ± 0.11
SDNISRKYEISFGKIYV [RPB2] | 2.79 ± 0.059 | 3.32 ± 0.073 | 2.78 ± 0.068 | 2.72 ± 0.072
SDNSEEEEVDIDMDKLN [RRP43] | 3.25 ± 0.069 | 3.25 ± 0.071 | 3.4 ± 0.077 | 3.11 ± 0.05
SDNVYLKLLVKLYTFLA [RPL18A] | 2.12 ± 0.098 | 1.99 ± 0.099 | 1.67 ± 0.084 | 2.43 ± 0.084
SDPESERPAIEFETPTF [RPN14] | 3.13 ± 0.054 | 3.11 ± 0.055 | 3.02 ± 0.047 | 3.15 ± 0.053
SDRSLSEDLFADGLLQV [BRR2] | 3.04 ± 0.28 | – | – | –
SDSNANAAVAGVANTDT [SWI3] | 3.28 ± 0.063 | 3.33 ± 0.07 | 3.22 ± 0.044 | 2.91 ± 0.061
SDSSKPAFSFGTKSNEK [YJL041W/NSP1] | 2.97 ± 0.073 | 2.19 ± 0.058 | 2.79 ± 0.076 | 2.75 ± 0.041

Sequence | protein stability index (doa10∆) | protein stability index (pdr5∆) | protein stability index (san1∆) | protein stability index (ubr1∆)
SDTLKEFKIEQNNEQNP [YDL116W/NUP84] | 2.79 ± 0.23 | 3.01 ± 0.15 | 2.8 ± 0.1 | 3.3 ± 0.22
SDVSDFEGWGHEYIRHL [RPN1] | 3.07 ± 0.15 | 3.09 ± 0.14 | 3.17 ± 0.14 | 3.37 ± 0.15
SEDHSFRKIKLRVDEVQ [RPS1A] | 3.1 ± 0.12 | 3.16 ± 0.11 | 3.1 ± 0.071 | 3.22 ± 0.071
SEDHSFRKVKLRVDEVQ [RPS1B] | 3.05 ± 0.094 | 2.96 ± 0.15 | 2.66 ± 0.091 | 3.1 ± 0.067
SEEINQYVTQIEQEKQE [PRE6] | 2.68 ± 0.075 | 1.76 ± 0.063 | 2.59 ± 0.085 | 2.62 ± 0.086
SEEVDDLSMVPKMKDEE [SNF2] | 2.78 ± 0.17 | – | 3.29 ± 0.12 | 3.59 ± 0.22
SEFANQNQGGAQAPFDI [ROX3] | – | – | 3.28 ± 0.22 | 3.48 ± 0.094
SEKNKRQSKSSGKSNTS [ITC1] | 3.06 ± 0.094 | 3.31 ± 0.071 | 2.98 ± 0.073 | 3.16 ± 0.1
SENAPSASSKEFNFTNL [YAR002W/NUP60] | 2.83 ± 0.052 | 2.94 ± 0.062 | 2.88 ± 0.051 | 2.99 ± 0.056
SENRNNIKSSISNGNLA [YOR098C/NUP1] | – | 3.65 ± 0.24 | 2.96 ± 0.22 | 3.17 ± 0.24
SEQKMKEDADLKRMEIL [SIR4] | 2.99 ± 0.066 | 3.34 ± 0.11 | 3.49 ± 0.059 | 3.28 ± 0.073
SERDSKDRYINGDKKVD [YMR129W/POM152] | 3.08 ± 0.14 | 3.11 ± 0.092 | 3.15 ± 0.091 | 3.1 ± 0.1
SETPLQKTVNLKNIMKV [RPN4] | 2.25 ± 0.08 | 2.6 ± 0.085 | 2.56 ± 0.11 | 2.48 ± 0.043
SETREKELESIDVLLEQ [RPB4] | 3.04 ± 0.13 | 3.11 ± 0.096 | 2.86 ± 0.11 | 3 ± 0.095
SEVANNGLIISWSNGKI [RRP42] | 2.28 ± 0.13 | 1.66 ± 0.054 | 3.03 ± 0.091 | 2.54 ± 0.14
SEYKVAFPHLYNSRPRS [PRP8] | 2.91 ± 0.071 | 2.66 ± 0.072 | 2.85 ± 0.086 | 2.77 ± 0.06
SFAKLVPCEGKDVTQGL [SMC2] | 1.62 ± 0.08 | 2.07 ± 0.088 | 1.5 ± 0.23 | 1.86 ± 0.08
SFATATCVTCHWNLPGE [SIR2] | 1.64 ± 0.068 | 1.97 ± 0.11 | 1.9 ± 0.084 | 1.92 ± 0.064
SFDVAISTACPRLDDVV [SMC4] | 3.12 ± 0.083 | 3.34 ± 0.051 | 3.1 ± 0.075 | 3.11 ± 0.078
SFFHQSNMQKSLLPYYH [RPN3] | 1.66 ± 0.037 | 1.67 ± 0.041 | 1.63 ± 0.07 | 1.9 ± 0.03
SFGNREEFINKLVKAMN [RPL7B] | 2.03 ± 0.13 | 1.94 ± 0.17 | – | 2.75 ± 0.073
SFGNREEFINKLVKSMN [RPL7A] | 2.52 ± 0.11 | 2.6 ± 0.11 | 2.29 ± 0.18 | 2.76 ± 0.071
SFLEGSKALNSILESSM [RGR1] | 1.81 ± 0.19 | 1.59 ± 0.1 | 3.09 ± 0.21 | 2.02 ± 0.13
SFLESVIRDSVTYTEHA [HHF1] | 2.82 ± 0.077 | 2.29 ± 0.064 | 2.17 ± 0.058 | 2.47 ± 0.049
SFLGYLRYVKQIEGPFL [ISW2] | 2.28 ± 0.061 | 2.42 ± 0.046 | 2.45 ± 0.053 | 2.4 ± 0.04
